{
  "source": "the domain aggregation screens of Martell et al. (2025)",
  "data": [
    {"experiment": "soluble fraction after stress (log2 fold change); higher = more stays soluble; pooled small domains, quantitative proteomics", "settings": "stress: pH 4", "summary_of_the_method": "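Following acid stress at pH 4, the amount of each small protein domain still soluble was measured in pooled custom libraries by high-throughput quantitative proteomics. Its fold change, on a log2 scale, is higher when more of the domain stayed soluble. This fold change is taken as a measure of aggregation propensity.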", "values": [
      {"sequence": "HMKEKLGEFENVFLSVDELQKLKSKLGAETESYIERLSNYIASSGKKYKSHYATILSWTQKDTK", "soluble fraction (log2)": -0.644},
      {"sequence": "HMVNPDAPAPLYIVNGKETDKNIALAIKPEDVQDVRIIKNTVALQVYGEKGKNGVVIINTKPGV", "soluble fraction (log2)": 0.0604},
      {"sequence": "HMDVRKSISDLKALGLSDAAVTVYGTIGNKPVHIDKIVSELGIPVFKVLTALTQLEMKGLVTAMQGRMYVL", "soluble fraction (log2)": -0.168},
      {"sequence": "HMHQALLEQSAEHAQQVKAYELLLTAERALDEENTEAFLSAMKSLKPLAENLDAKGKALYQELLPFVTEA", "soluble fraction (log2)": -0.425},
      {"sequence": "HMSAISSARKEKIIEYLTDHGSARSSEIAEYVDLRPSRVRDYLGELVREDIVVAEGANRNRTYRLK", "soluble fraction (log2)": 0.409},
      {"sequence": "HMTNSAGIERFLASGAIDGVGPAMARRIVEHFGTEALRIIESVPHRLREISGIGPKTAEKIASSYMRQ", "soluble fraction (log2)": -0.618},
      {"sequence": "HMSNPPIRIGKKALHELLTTWLSLLSRDGVAYLVVQKNLGADSLTAWLRDQGFPSEKIASKKGFRIIEVH", "soluble fraction (log2)": 0.0506},
      {"sequence": "HMPSSQQVMRRLATVGPDKTLEELQRQHDAHLRKYGEFNDFRGERQQMRQEMERIKEAKQGTGPYAHLMG", "soluble fraction (log2)": -0.0742},
      {"sequence": "HMPYNRRYLISNADGALYTVEENGLVKLEETNLTAELFETRGMQDIPDGKLLITLHDPTILYWHDSENLFP", "soluble fraction (log2)": -2.32},
      {"sequence": "HMGDWEKALAQFAAHRLANGSTAFLDEMYPIFERILLQAALNKTGGRKIEAAELLGWGRNTLTRKLKELGF", "soluble fraction (log2)": -1.01},
      {"sequence": "HMDNEIMYPIQINGKVRAELFVSTERAMDKQYVLEQAKANEKIQGYLEGNRLVKEIFVPKRIVNLVIAP", "soluble fraction (log2)": 0.184},
      {"sequence": "HMNLNIGNNIKNIRKSKNMTQTDFAELMGLSRSYIGDLENNRSNPSIKTLEAIARALDVPIVALIN", "soluble fraction (log2)": -0.726},
      {"sequence": "HMDADRLSPREREMLQFIARGQSNKEIARALELAESTVKIHVQNMLRKLNLSSRVQAAVFAVENGLG", "soluble fraction (log2)": 0.302},
      {"sequence": "HMHSGFHSAILDVDRAVKEGKTLYEALNKYPYIFDETFRSLVRAGEASGELPSILSKLALYLEEQSK", "soluble fraction (log2)": -1.04},
      {"sequence": "HMDPSHGESRENLDIMRIIDETHLEYPSWGYRKMTDHLRANHGYTINRKRVRRLMRLMDIIALFPG", "soluble fraction (log2)": -0.908},
      {"sequence": "HMHPDHRTATVPDAAAGRRFDAVLAELFPQFSRSKLTTWIKSGEVLLNGEVPRPRDAVVGGETVSLNVVL", "soluble fraction (log2)": "≥ 0.43"},
      {"sequence": "HMSPLALLTPRELDILRAMTAGASNKEIARQFAIAETTVKIHVQHILRKLDVTTRVHAAVMASESGL", "soluble fraction (log2)": -1.09},
      {"sequence": "HMTDVGLEAAKAAALKHAGLSADQVTGLTAKLDWDDGQRVYEVDFWQGSTEYEYEINADGTVRQYESEAH", "soluble fraction (log2)": -0.469},
      {"sequence": "HMKNVEEMILGKLKRKVSENLENASFEEIILVDAEKSVYKGIIKANYIEYYFRVNLSTGEVLSWKLK", "soluble fraction (log2)": -0.755},
      {"sequence": "HMGGGRELGLDPETGKKISVRLGKFGPFVQLGESGEEDKPVFANLGKNQSIATLSLEEAIALLARPK", "soluble fraction (log2)": 0.189},
      {"sequence": "HMAISSADRIVAELRTWISGASPGTQLPSSRTLAARYGASPVTVQKALHTLAGMGLVEARPGAGTFVRRQS", "soluble fraction (log2)": "≥ 0.43"},
      {"sequence": "HMQADPYTVLGVLRDVTDGELKREYRKLVREHHPDALIAQGVPQEFVDIANNKLAVINAAYERIAKQRGL", "soluble fraction (log2)": -0.293},
      {"sequence": "HMDRIISTPMPGRVVKIPVTEGEPVAKGATVITISAMKMESEYKSPIDGIVKKIHVSEGDNINANQPLIEI", "soluble fraction (log2)": -0.112},
      {"sequence": "HMPGLPLWAFSTRGSAIHTGASFRDGDGLLFGPESRGLPDWLLEEVGQDRVLRLPMRPGSRSLNLSNAV", "soluble fraction (log2)": -1.7},
      {"sequence": "HMGMETQLSPKEKSIYTIIQNRPNIQSGEVSEKLAIPLPTVKRILSDLINKGLIEKQGSGRNVSYTI", "soluble fraction (log2)": 0.241},
      {"sequence": "HMFGEDNLKSKEIKERVTEVAKHADDPVWIEARRKWKDENPDQNVKDYQQAYISGRIHELPWDVSYI", "soluble fraction (log2)": -0.0276},
      {"sequence": "HMPATIEGIRLYLSSGLIKGVGEEMASRIVKAFGTDTIRVLDEEPERLLKVRGVGKKSLDRIRTSWAEH", "soluble fraction (log2)": -0.585},
      {"sequence": "HMSISDEDFAKLLDFVKEKWDAGELDNAEDIKAAISEGEKEFGVSLDESTRTTLASALQQLN", "soluble fraction (log2)": -0.496},
      {"sequence": "HMATPRLAIVPQSAAGRRLDAVLAELFPEYSRSRLSAWIKTGDVMVDGAAPRGRDPVRGGEEITLTAVQ", "soluble fraction (log2)": 0.113},
      {"sequence": "HMSEITQTLSMIGKEVTLEIPDEKDKTKTTEVKGIVTEASFKDGTGKVKVNGEYYSIAYITSIRDT", "soluble fraction (log2)": -0.545},
      {"sequence": "HMPPNHADLKSSGLKATLPRLKILEIFQNSQVRHLSAEDVYKLLLAENLDVGLATVYRVLTQFEQAGL", "soluble fraction (log2)": -0.511},
      {"sequence": "HMFVTFFHELKSAGVPVSLREYLTLMEAMDRDLASRRVEEFYYLARTALVKDERNLDKFDRVFGHVFKGL", "soluble fraction (log2)": -1.69},
      {"sequence": "HMAPGVHVEALLPYTAGSLVSQIREYGNVDAVEYRDTGILLQADVDERLAAQIMDQALEDPV", "soluble fraction (log2)": -1.03},
      {"sequence": "HMGKVLIYKPNMSVSDVAIRLGISNAEIIKRLMGLGVMTSINQTIDRDTIELVAMDLGFSIEN", "soluble fraction (log2)": -0.581},
      {"sequence": "HMRRELDSEHKRQEILFAAKRLLLAEGYDATSMSRLAKEAGVAPNTLYWYFKDKDELLIAILDELVAE", "soluble fraction (log2)": -1.09},
      {"sequence": "HMVGNEEALRAIVESIIAQNTTEVASFREGKEGLIGWFLGQVMRQTGGKADPKLARQILLELLKQ", "soluble fraction (log2)": -0.492},
      {"sequence": "HMKDMKISTKNLLQELAKNYPDQTSFRKNVIETTARAMGYTGKDFYPLLTTDNRVKIGTYDLATFLRSI", "soluble fraction (log2)": -0.122}
    ]}
  ]
}
